Source: publication PMC6815381, “Unravelling the diversity of glycoside hydrolase family 13 α-amylases from Lactobacillus plantarum WCFS1” (Microbial Cell Factories, 2019)

Substrate: O=[N+]([O-])c1ccc(O[C@H]2O[C@H](CO)[C@@H](O[C@H]3O[C@H](CO)[C@@H](O)[C@H](O)[C@H]3O)[C@H](O)[C@H]2O)cc1
Assay: purified protein
Assay type: biochemical, Lactiplantibacillus plantarum
Conditions: 50 mM MOPS pH 7.0, 20 mM NaCl, 1 mM DTT, 30 °C, substrate 0-10 mM

| Protein | Km | Vmax | kcat |
| --- | --- | --- | --- |
| Lp_2757, maltogenic α-amylase (Lactiplantibacillus plantarum WCFS1) (protein, gene 1722 bp) MQLAGIRHRPESEDTAVLAAHQLQVRLQTARDDVAQVEILFADSYLWQEGTTALERRIMQPGLATQGNQYWQTTLTVPTNRVVYAFLITDTIGATVGYGEGGFFDDVATNWQTVGNYFHMPYMHVSDAELPPAWVKETVWYQIFPERFANGVRQNDPANVQPWGAGRVHRDSFYGGDLPGITAHLDDLAALGVNGLYLCPIFTSPSNHKYDTIDHFEIDPHFGTKADFQALVDGAHARGMRVMLDAVFNHFGEQSPQWQDVIKNGEQSRFADWFHIHGWPVGRDPKTKRLNYETFATGAAMPKVNTQNPAVQAYLIDVTKYWIEQFGIDAWRFDVADEVDHGFWRALCGALRAIKPDVYLLGESWHSSQSLVGNGQFNAVMNYPLTQPILALFNGQLNPEDYVGKTNLELMMYRQPNQQAMFNALDTHDTPRLLTTLHGQLTKFKSALTLLMLLPGSPCIYYGTEVAMAGGADPDNRRCMNWQPDEQEQQVRQFVTRLIKFRRQQADFLATSQLTWTIDGHCLILTRTDVEQTIQGRFNLGAQAVSTVSGVSPILTAGITANEMAPGGFELTVA | 620 ± 120 µM | 0.016 µmol/min | 4.9142 ± 1.67e-05 s⁻¹ |
| Lp_0179 (Amy2), maltose-forming α-amylase (Lactiplantibacillus plantarum WCFS1) (protein, gene 1320 bp) MARDTQTQLRNEMIYSVFVRNYSEAGNFAGVTADLQRIKDLGTDILWLLPINPIGEVNRKGTLGSPYAIKDYRGINPEYGTLADFKALTDRAHELGMKVMLDIVYNHTSPDSVLATEHPEWFYHDADGQLTNKVGDWSDVKDLDYGHHELWQYQIDTLLYWSQFVDGYRCDVAPLVPLDFWLEARKQVNAKYPETLWLAESAGSGFIEELRSQGYTGLSDSELYQAFDMTYDYDVFGDFKDYWQGRSTVERYVDLLQRQDATFPGNYVKMRFLENHDNARMMSLMHSKAEAVNNLTWIFMQRGIPLIYNGQEFLAEHQPSLFDRDTMVADRHGDVTPLIQKLVTIKQLPLLRAADYQLAVVEEGIVKITYRAAGEALTAWIPLKGQVTAVATKLAAGSYQNLLTDGPTEVVDGKLTVDGQPVLIKYVTNTAVTKVADQSN | 320 ± 70 µM | 0.017 µmol/min | 3.856 ± 3.33e-05 s⁻¹ |
